# Assay results reported in patent US20060153778A1 (MannKind Corporation, priority 2005, published 2006).
# Where two headings read alike, the source gives them in different places.
# Columns and labels:
# [1] = in vivo
# [2] = Time to peak blood concentration and uptake rate after pulmonary delivery (general statements)
# [3] = Glucose clamp study: serum insulin concentrations, bioavailability; type: in vivo, human
# Excerpt: (§1) The volunteers were in good health, as judged by physical examination, age: 18 to 40 years, body mass index: 18 to 26 kg/m^2, capability to reach peak inspiratory flow of ≧4 L/sec measured by a computer assisted spirometry and a FEV1 (FEV1=forced expiratory volume in one second) equal to or greater than 80% of predicted normal.
# (§2) On the morning of the study days, the subjects came to the hospital (fasting, except for water, from midnight onward) at 7:30 a.m. The subjects were restricted from excessive physical activities and an intake of alcohol for 24 hours before each treatment day. They were randomly assigned to one of the three treatment arms. […] Blood glucose was kept constant at a level of 90 mg/dL throughout the glucose clamp by a glucose controlled infusion system (BIOSTATOR™, Life Science Instruments, Miles Laboratories, Elkhart, Ind.). The glucose clamp algorithm was based on the actual measured blood glucose concentration and the grade of variability in the minutes before to calculate the glucose infusion rates for keeping the blood glucose concentration constant. […] The duration of the clamp experiment was 6 hours from time point 0.
# [4] = Glucose clamp study after inhalation of Technosphere/Insulin: glucose infusion rate (biological action), tolerability; type: in vivo, human; conditions: for T-50% (time from baseline to half-maximal after passing Tmax), calculated on glucose infusion rate / Tmax, calculated on glucose infusion rate / T50% (time from baseline to half-maximal values), calculated on glucose infusion rate: glucose clamp; for T50% (time from baseline to half-maximal values), calculated on glucose infusion rate: healthy male volunteers
# Excerpt: as §1
# as §2, with “0. Glucose infusion rates, blood glucose, serum insulin and C-peptide were measured.” for “0.”
# [5] = in vivo; remark: listed apart in the source
compound,measurement,setting,value
CCNC(=O)[C@@H]1CCCN1C(=O)[C@H](CCCNC(=N)N)NC(=O)[C@H](CC(C)C)NC(=O)[C@@H](CC(C)C)NC(=O)[C@H](Cc1ccc(O)cc1)NC(=O)[C@H](CO)NC(=O)[C@H](Cc1c[nH]c2ccccc12)NC(=O)[C@H](Cc1c[nH]cn1)NC(=O)[C@@H]1CCC(=O)N1 [leuprolide],Time to peak blood concentrations,[1],3 to 10 min
"insulin: insulin given as 5 IU intravenous or 10 IU subcutaneous injection, or by the pulmonary route without fumaryl diketopiperazine; comparator",Time to peak blood concentrations,[2]; pulmonary route without fumaryl diketopiperazine,25 to 60 min
same,Time to peak blood level,[2]; subcutaneous injection,30 to 90 min
same,"T50% (time from baseline to half-maximal values), calculated on insulin levels",[3]; 5 IU insulin intravenous,2 min
same,"T to baseline, calculated on insulin levels",[3]; 5 IU insulin intravenous,60 min
same,"T-50% (time from baseline to half-maximal after passing Tmax), calculated on insulin levels",[3]; 5 IU insulin intravenous,0.1 h
same,"Tmax, calculated on insulin levels",[3]; 5 IU insulin intravenous,0.083 h
same,"T to baseline, calculated on insulin levels",[3]; 10 IU insulin subcutaneous,360 min
same,"T-50% (time from baseline to half-maximal after passing Tmax), calculated on insulin levels",[3]; 10 IU insulin subcutaneous,4.17 h
same,"Tmax, calculated on insulin levels",[3]; 10 IU insulin subcutaneous,2.02 h
same,"T to baseline, calculated on glucose infusion rate","[4]; 5 IU insulin intravenous, clamp duration 6 hours",240 min
same,"T-50% (time from baseline to half-maximal after passing Tmax), calculated on glucose infusion rate",[4]; 5 IU insulin intravenous,1.37 h
same,"Tmax, calculated on glucose infusion rate",[4]; 5 IU insulin intravenous,0.233 h
same,"T50% (time from baseline to half-maximal values), calculated on glucose infusion rate",[4]; 5 IU insulin intravenous,9 min
same,"T-50% (time from baseline to half-maximal after passing Tmax), calculated on glucose infusion rate",[4]; 10 IU insulin subcutaneous,4 h
same,"Tmax, calculated on glucose infusion rate",[4]; 10 IU insulin subcutaneous,2.72 h
same,"T50% (time from baseline to half-maximal values), calculated on glucose infusion rate",[4]; 10 IU insulin subcutaneous,60 min
"O=C(O)/C=C/C(=O)NCCCC[C@@H]1NC(=O)[C@H](CCCCNC(=O)/C=C/C(=O)O)NC1=O [FDKP, fumaryl diketopiperazine]",Transit from the lungs,[5],kinetics similar to that of insulin
parathyroid hormone 1-34: peptide complexed with FDKP for pulmonary delivery,Time to peak blood concentrations,[1],3 to 10 min
salmon calcitonin,Time to peak blood concentrations,[1],3 to 10 min
